In patent publication US9358302:

Biological target: GBSIII-OVAp (GBSIII conjugated to OVAp19)
Assay: cell-based or functional assay

T-cell receptor of DO11.10 transgenic mice that recognizes OVA peptide 323-339 in the context of MHC class II (I-A^d) (TCR)
T cell proliferation, stimulation index (SI), 10 µg GBSIII-OVAp: 53.6 SI
fold decrease in T cell proliferation against OVAp of the same amount: 60 fold
